Holding throughout (test): cell-based or functional assay
Assay [1] addresses T1, rat NGF (rat, UniProt P25427 122-241).
A further assay concerns the target human NGF (human, UniProt P01138 122-241).
Assay [2] has as its target T1, rat NGF. This is another data set of the same source.
Assay [3] concerns the target T1, rat NGF. This is another data set of the same source.

Substitutions are numbered along the chain they refer to. Where two headings read alike, the source gives them in different places. Bounds are passed on as bounds.

Data on five molecules can be found in US20110097341A1 (Pfizer, published 2011).

Sequence of human NGF (P01138 122-241 limits assumed): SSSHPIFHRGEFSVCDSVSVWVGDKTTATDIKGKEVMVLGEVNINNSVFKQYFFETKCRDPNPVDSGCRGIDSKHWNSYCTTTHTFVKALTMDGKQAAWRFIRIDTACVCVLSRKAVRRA
T1 sequence (P25427 122-241 limits assumed): as the sequence (P01138 122-241 limits assumed) above, with S3T, I6V, R9M, M37T, D60A, D65E, M92T, G94D, V117A, A120G counted along it

In the assay with rat NGF [1], mouse antibody 911 (Fab) returned an IC50 (1.5 pM NGF), NGF-dependent survival of mouse E13.5 trigeminal neurons of 34.6 pM and an IC50 (15 pM NGF), NGF-dependent survival of mouse E13.5 trigeminal neurons of 161 pM. Further, in the assay with human NGF, the IC50 (in the presence of 1.5 pM NGF), NGF-dependent survival of mouse E13.5 trigeminal neurons stood at 63.5 pM; the IC50 (in the presence of 15 pM NGF), NGF-dependent survival of mouse E13.5 trigeminal neurons turned out to be 322 pM; the concentration that totally blocked NGF-elicited survival of trigeminal neurons was 20 nM.

B1: 3C (Fab, V domains shown)
VH: QVQLQESGPGLVKPSETLSLTCTVSGFSLIGYDLNWIRQPPGKGLEWIGIIWGDGTTDYNSAVKSRVTISKDTSKNQFSLKLSSVTAADTAVYYCARGGYWYATSYYFDYWGQGTLVTVS
VL: DIQMTQSPSSLSASVGDRVTITCRASQSISNNLNWYQQKPGKAPKLLIYYTSRFHSGVPSRFSGSGSGTDFTFTISSLQPEDIATYYCQQERTLPYTFGQGTKLEIKR
On to B1, for which, in the assay with human NGF, the “IC50 (in the presence of 1.5 pM NGF), NGF-dependent survival of mouse E13.5 trigeminal neurons” value (shortened to “IC50 (in the presence of 1.5 pM NGF)”) amounted to 5.6 pM and the “IC50 (in the presence of 15 pM NGF), NGF-dependent survival of mouse E13.5 trigeminal neurons” value (shortened to “IC50 (in the presence of 15 pM NGF)”) was 80.9 pM. Besides, in the assay with rat NGF [2], the “IC50 (1.5 pM NGF), NGF-dependent survival of mouse E13.5 trigeminal neurons” value (from here on “IC50 (1.5 pM NGF)”) turned out to be 6 pM and the “IC50 (15 pM NGF), NGF-dependent survival of mouse E13.5 trigeminal neurons” value (shortened to “IC50 (15 pM NGF), NGF-dependent survival”) was 31.6 pM.

B2: H19-L129 (Fab, V domains shown)
VH: B1 VH with W101Y, A103G
VL: B1 VL with E91S, R92K
In the case of B2, in the assay with human NGF, the “IC50 (in the presence of 1.5 pM NGF)” value turned out to be 9.6 pM and the “IC50 (in the presence of 15 pM NGF)” value was found to be 60.1 pM. Also, in the assay with rat NGF [2], the “IC50 (1.5 pM NGF)” value was determined as 6 pM and the “IC50 (15 pM NGF), NGF-dependent survival” value was 31 pM.

B3: 8L2-6D5 (Fab, V domains shown)
VH: B1 VH with L34I, I50M, V63L, W101Y, A103G
VL: B1 VL with S28D, N32H, T51I, E91S, R92K
Take B3: in the assay with human NGF, the “IC50 (in the presence of 1.5 pM NGF)” value came out at 462 pM and the “IC50 (in the presence of 15 pM NGF)” value amounted to 1580 pM. In addition, in the assay with rat NGF [2], the “IC50 (1.5 pM NGF)” value was determined as 169 pM and the “IC50 (15 pM NGF), NGF-dependent survival” value came out at 730 pM.

B4: Fab E3 (Fab, V domains shown)
VH: B1 VH
VL: B1 VL with R92H
For the molecule B4, the “IC50 in the presence of 15 pM rat NGF, trigeminal neuron survival” value in the assay with rat NGF [3] is about 31.6 pM. In addition, in the assay with human NGF, the “IC50 (in the presence of 1.5 pM NGF)” value was under 1.2 pM and the “IC50 (in the presence of 15 pM NGF)” value is under 21 pM. Also, in the assay with rat NGF [2], the “IC50 (1.5 pM NGF)” value is under 1.3 pM and the “IC50 (15 pM NGF), NGF-dependent survival” value is under 8.3 pM.
